In the test the target is SARS-CoV-2 RBD (residues Arg319–Phe541) (SARS-CoV-2) (UniProt P0DTC2).

B1: P5A-2G7 (Fab) (Fab, V domains shown)
VH: QVQLQESGPGLVKPSETLSLTCTVSGDSVSSGSYYWSWIRQPPGKGLEWIGYIYYSGSTNYNPSLKSRVTISVDTSKNQFSLKLSSVTAADTAVYYCARERCYYGSGRAPRCVWFDPWGQGTLVTVSS
VL: QSALTQPASVSGSPGQSITISCTGTSSDVGGYNYVSWYQQHPGKAPKLMIYDVSNRPSGVSNRFSGSKSGNTASLTISGLQAEDEADYYCSSYTSSSTLVVFGGGTKLTVL
On to B1, for which the SARS-CoV-2 pseudovirus neutralisation (luciferase, Huh7), IC50, Fab was determined as 195 nM; the SARS-CoV-2 pseudovirus neutralisation (luciferase, Huh7), IC80, Fab turned out to be 1020 nM; the other was found to be 15.5%.

B2: P5A-1B8 (Fab) (Fab, V domains shown)
VH: EVQLVESGGGLIQPGGSLRLSCAASGFTVSSNYMSWVRQAPGKGLEWVSVIYPGGSTFYADSVKGRFTISRDNSKNTLYLQMNSLRAEDTAVYYCARETLAFDYWGQGTLVTVSS
VL: DIQLTQSPSFLSASVGDRVTITCRASQGISSYLAWYQQKPGKAPKLLIYAASTLQSGVPSRFSGSGSGTEFTLTISSLQPEDFATYYCQQLNSYPPAFGGGTKVEIK
As for B2, the SARS-CoV-2 pseudovirus neutralisation (luciferase, Huh7), IC50, Fab was determined as 36.2 nM; the SARS-CoV-2 pseudovirus neutralisation (luciferase, Huh7), IC80, Fab came out at 174 nM; the other stood at 25.1%.

The record behind these values is PMC7966918.
